This passage reports inhibitory rate of xylanase activity after incubation of the xylanase with rePRIXI results from paper PMC6883096.

In test [1] the target is recombinant Bacillus amyloliquefaciens xylanase A (reBaxA) (Bacillus amyloliquefaciens).
Test [2] concerns the target DS153 (BaxA N29S) (Bacillus amyloliquefaciens).
Test [3] addresses DS428 (BaxA I51V) (Bacillus amyloliquefaciens).
Test [4] has as its target catalytic domain of Thermomonospora fusca TF xylanase A (TfxA_CD) (Thermomonospora fusca TF).
In test [5] the target is DS241 (BaxA S31R) (Bacillus amyloliquefaciens).

B1: recombinant rice xylanase inhibitor (rePRIXI) (natural protein)
chain: AGKTGQMTVFWGRNKNEGTLKETCDTGLYTTVVISFYSVFGHGRYWGDLSGHDLRVIGADIKHCQSKNIFVFLSIGGAGKDYSLPTSKSAADVADNIWNAHMDGRRPGVFRPFGDAAVDGIDFFIDQGAPDHYDDLARNLYAYNKMYRARTPVRLTATVRCAFPDPRMKKALDTKLFERIHVRFYDDATCSYNHAGLAGVMAQWNKWTARYPGSHVYLGLAAANVPGKNDNVFIKQLYYDLLPNVQKAKNYGGIMLWDRFYDKQTGYGKTVKYWA
As for B1, the inhibitory rate of xylanase activity after incubation of the xylanase with rePRIXI at 50°C for 40 min (residual activity on beechwood xylan) stood at 30.3% in test [1]; 14.8% in test [2]; 11.3% in test [3]; 11.2% in test [4]; 20.5% in test [5].
